Numbering of substitutions follows the chain as printed. Names and notes keep the numbering of the source.
Columns and labels:
NCP147 = test: FRET, LexA titration into Cy3-Cy5 labeled NCP147; type: binding; settings: mean of n = 3
Method: Histone octamers unlabeled or labeled with Cy5 at H2AK119 were prepared as previously described. NCPs were reconstituted by combining octamer with 1.25× excess DNA and performing slow salt dialysis. Free DNA was then separated from fully reconstituted NCPs by sucrose gradient purification. NCPs for fluorescence polarization assays were reconstituted from unlabeled octamer and 207 bp DNA containing the 601 Widom sequence flanked with a 30 bp linker on either side and internally labeled with Fluorescein 27 bp in from the 5′ end. Cy3-Cy5 labeled NCPs for FRET assays were reconstituted with Cy5 labeled octamer plus either 147 bp 601 Widom DNA containing a LexA transcription factor binding site at bases 8–27[34], or 252 bp DNA containing the 601 Widom sequence with a 75 bp linker at the 3′ end, a 30 bp linker at the 5’ end, and a Gal4 transcription factor binding site at bases 8–26 in the 601 Widom sequence. The 147 bp LexA-binding DNA was labeled with Cy3 on the 5′ end, and the 252 bp Gal4-binding DNA was internally labeled with Cy3 34 bp in from the 5′ end.
LexA was expressed in E. coli, separated from genomic DNA and the proteome by polyethyleneimine precipitation, and salted out with ammonium sulfate. LexA was resuspended in buffer A (20 mM potassium phosphate pH 7, 0.1 mM EDTA, 10% glycerol, 1 mM DTT) + 200 mM NaCl and purified by a linear gradient to A + 800 mM NaCl over either a cellulose phosphate or HiTrap Heparin HP column. […]
Cy3-Cy5 NCP FRET efficiency measurements were carried out on a Horiba Scientific Fluoromax 4. […] LexA titrations were carried out in 20 mM Tris pH 7.5, 75 mM NaCl, 10% glycerol, 0.00625% Tween 20 buffer with 5 nM 147 bp Cy3-Cy5 NCPs mixed in 20 µL reaction volumes and allowed to incubate for 5 mins at 4 °C before FRET of the sample was measured. […] Gal4 (1–147) titrations were carried out in 10 mM Tris pH 8, 130 mM NaCl, 10% glycerol, 0.0075% Tween 20 buffer with 1 nM 252 bp Cy3-Cy5 nucleosomes mixed in 60 µL reaction volumes and allowed to incubate for 10 mins at room temperature before FRET of the sample was measured. […]

HEK293T cells [1] = test: Cell cycle analysis by flow cytometry; type: cell-based; settings: for effect on S phase (words): 48-h overexpression, vs control cells; for percent of cells in S phase: 48-h overexpression of mCherry-tagged protein, EdU/PI, average of three independent experiments, control 34.5%
Method: For DNA content analysis, 10^6 cells previously transfected with mCherry MORC4 constructs and labeled with 25 µM Ethynyl deoxyUridine (EdU) for 1 h in 100 µL were washed with PBS (NaCl 137 mM, KCl 2.7 mM, Na2HPO4 10 mM, KH2PO4 1.8 mM) and fixed in ice cold 70% ethanol overnight. Fixed cells were washed and resuspended in PBS containing 0.05% NP40 and incubated at room temperature for 30 min. Cells were again washed with PBS. Cells were resuspended in Alexa Fluor 647 click staining solution (100 mM Tris pH 7.6, 4 mM CuSO4, 3 µM AF647 azide, 100 mM Sodium Ascorbate) for 1 h. Following staining, cells were washed with PBS and then stained for total DNA content using 10 μg/mL propidium iodide (PI) and 0.2 mg/ml RNase A for 60 min before analysis on a FACScan instrument. Data were analyzed using FlowJo (Version 10) with cells gated to remove doublets. EdU vs PI plots were gated in quadrants to identify G1, early S, late S and G2/M cells. S phase fractions were summed for total S phase population. […]

MORC4 CW domain = target: T1, MORC4 CW domain (Homo sapiens, UniProt Q8TE76); test: 1H,15N HSQC NMR titration of MORC4 CW; type: binding; settings: Supplementary Fig. 12
T1 construct: The CW domain (aa 417–475) of MORC4 was cloned into a pGEX 6p-1 vector; GST (N, cleaved yes); made in house; host or cells: E. coli Rosetta2 (DE3) pLysS or BL21 (DE3) RIL
T1 sequence (Q8TE76 417-475): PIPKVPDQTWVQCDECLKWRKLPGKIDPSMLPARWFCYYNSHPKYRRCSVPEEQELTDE
Method: NMR experiments were carried out at 298 K on a Varian INOVA 600 and 900 MHz spectrometers. His-tagged MORC4 ATPase (1–411) was expressed and purified as described above and used without cleavage of the tag. NMR samples contained 0.1 mM uniformly ^15N-labeled WT or mutated CW in 20 mM Tris-HCl (pH 7) buffer supplemented with 100 mM NaCl, 5 mM DTT, and 10% D2O. Binding was characterized by monitoring CSPs in the proteins induced by H3 peptides or the ATPase domain. For the CWKRR mutant, NMR experiments were performed in 20 mM Tris-HCl (pH 6.8) buffer supplemented with 150 mM NaCl, 2 mM DTT, and 10% D2O.

HEK293T cells [2] = test: MORC4 localization and nuclear bodies (confocal microscopy); type: cell-based; settings: live cells, confocal microscopy, 48 h post transfection
Method: WT mCherry-MORC4, mCherry-MORC4 E56A, mCherry-MORC4 W435A, mCherry-MORC4 E56A/W435A, mCherry-MORC4 K460A/R462A/R463A, or mCherry control plasmid were transfected into 2 million 293T-HEK cells seeded on 25 mm circular coverslips (Carolina Biological Supply Item#: 633057) in 10-cm-diameter tissue culture dish by Lipofectamine 3000 (Life Technology, L3000-075) following the manufacturer’s instructions. Two days after transfection, cells were stained with Hoechst […] for 30 min and imaged live on a ZeissAxiovert 200 M inverted microscope fitted with a ×40 oil objective. Images were acquired with Slidebook 6 software and exported for analysis in Image J.
mCherry foci sizes were calculated using ImageJ image processing program (version 1.51) using the Analyze Particle tool. mCherry particle sizes were collected for MORC4 WT and MORC4 W435A transfected cells. Data were plotted with R (version 3.4.1) using ggplot2 (version 3.2.1). Cell size and mCherry foci count per cell were calculated using CellProfile cell image analysis software (version 3.1.5) to identify nuclei and mCherry foci, relate mCherry foci to nuclei containing them and measure the size of nuclei and number mCherry foci contained. Data were plotted with R (version 3.4.1) using ggplot2 (version 3.2.1).

B1: LexA: transcription factor LexA, expressed in E. coli (protein, UniProt P0A7C2 1-202, looked up)
LexA repressor: MKALTARQQEVFDLIRDHISQTGMPPTRAEIAQRLGFRSPNAAEEHLKALARKGVIEIVSGASRGIRLLQEEEEGLPLVGRVAAGEPLLAQQHIEGHYQVDPSLFKPNADFLLRVSGMSMKDIGIMDGDLLAVHKTQDVRNGQVVVARIDDEVTVKRLKKQGNKVELLPENSEFKPIVVDLRQQSFTIEGLAVGVIRNGDWL
B1 gave an S1/2 (NCP147; +1 μM MORC4 ATPaseCW) of 2.4 ± 0.4 µM and an S1/2 (NCP147; without MORC4, 5 nM NCP147, pH 7.5, 75 mM NaCl, 4 °C, 5 min) of 0.9 ± 0.2 µM.

B2: MORC4 K460A/R462A/R463A: mCherry-tagged MORC4 triple mutant with disrupted DNA-binding activity of CW (protein, UniProt Q8TE76 1-937, looked up, variant K460A R462A R463A)
MORC family CW-type zinc …: MLLYRGAPAGPGAPGCGLARPGGGPQAFGIRLSTMSPRYLQSNSSSHTRPFSAIAELLDNAVDPDVSARTVFIDVEEVKNKSCLTFTDDGCGMTPHKLHRMLSFGFTDKVIKKSQCPIGVFGNGFKSGSMRLGKDALVFTKNGGTLTVGLLSQTYLECVQAQAVIVPIVPFNQQNKKMIITEDSLPSLEAILNYSIFNRENDLLAQFDAIPGKKGTRVLIWNIRRNKNGKSELDFDTDQYDILVSDFDTEEKMTGGVTSELPETEYSLRAFCGILYMKPRMKIFLRQKKVTTQMIAKSLANVEYDTYKPTFTNKQVRITFGFSCKNSNQFGIMMYHNNRLIKSFEKVGCQVKPTRGEGVGVIGVIECNFLKPAYNKQDFEYTKEYRLTINALAQKLNAYWKEKTSQDNFETSTVARPIPKVPDQTWVQCDECLKWRKLPGKIDPSMLPARWFCYYNSHPAYAACSVPEEQELTDEDLCLSKAKKQEQTVEEKKKMPMENENHQVFSNPPKILTVQEMAGLNNKTIGYEGIHSPSVLPSGGEESRSPSLQLKPLDSSVLQFSSKYKWILGEEPVEKRRRLQNEMTTPSLDYSMPAPYRRVEAPVAYPEGENSHDKSSSERSTPPYLFPEYPEASKNTGQNREVSILYPGAKDQRQGSLLPEELEDQMPRLVAEESNRGSTTINKEEVNKGPFVAVVGVAKGVRDSGAPIQLIPFNREELAERRKAVESWNPVPYSVASAAIPAAAIGEKARGYEESEGHNTPKLKNQRELEELKRTTEKLERVLAERNLFQQKVEELEQERNHWQSEFKKVQHELVIYSTQEAEGLYWSKKHMGYRQAEFQILKAELERTKEEKQELKEKLKETETHLEMLQKAQVSYRTPEGDDLERALAKLTRLRIHVSYLLTSVLPHLELREIGYDSEQVDGILYTVLEANHILD
modifications: mCherry tag
B2 was tested, and the “effect on S phase (words)” value (HEK293T cells [1]) was “increased percent of cells in S phase” and the “effect on S phase (words)” value (HEK293T cells [1]; listed as K460A/R462A/R463A) was “no significant effect was observed”.

B3: MORC4 W435A: mCherry-tagged full-length MORC4 W435A mutant, in which the structure of the CW domain is disrupted (protein, UniProt Q8TE76 1-937, looked up, variant W435A)
chain: B2 MORC family CW-type zinc … with W435A, A460K, A462R, A463R
modifications: full-length mCherry tag
In the case of B3, the “structure of the CW domain” value (MORC4 CW domain) is reported as “the structure of the CW domain is disrupted”, the “subcellular localization” value (HEK293T cells [2]) is reported as “dispersed throughout the cell” and the “percent of cells in S phase” value (HEK293T cells [1]) is reported as 36.5%.

B4: E56A/W435A: dual mutant of mCherry-tagged MORC4 (protein, UniProt Q8TE76 1-937, looked up, variant E56A W435A)
chain: B2 MORC family CW-type zinc … with E56A, W435A, A460K, A462R, A463R
modifications: full-length mCherry tag
notes: dual mutant of mCherry-tagged MORC4
For B4, the “percent of cells in S phase” value (HEK293T cells [1]) was 35.8%.

From article PMC7596504, “Molecular mechanism of the MORC4 ATPase activation” (Nature Communications, 2020)
